Test results published in patent US20170209564A1.

Legend:
Test in all cases: ELISA signal over HTRF expression signal, P. pastoris
Conditions in all cases: remark: other sources report otherwise
96H8 = target: 96H8
9C6 = target: 9C6
88C5 = target: 88C5
85A7 = target: 85A7
86B4 = target: 86B4
56F8 = target: 56F8
69D2 = target: 69D2
850 = target: 850
87H5 = target: 87H5
96G5 = target: 96G5
60A2 = target: 60A2
29C2 = target: 29C2
80F10 = target: 80F10
51G10 = target: 51G10
84B8 = target: 84B8
86G2 = target: 86G2
96A7 = target: 96A7
4C1 = target: 4C1
91C4 = target: 91C4
8A10 = target: 8A10
8D7 = target: 8D7
79C2 = target: 79C2
27B10 = target: 27B10
86B3 = target: 86B3
75E9 = target: 75E9
6E12 = target: 6E12
67C11 = target: 67C11
71D3 = target: 71D3
36E4 = target: 36E4
71A4 = target: 71A4
35H3 = target: 35H3
58C8 = target: 58C8
81F11 = target: 81F11
55G7 = target: 55G7
54H4 = target: 54H4
12C6 = target: 12C6
84D3 = target: 84D3
61A9 = target: 61A9

B1: CR6261 (antibody, V domains shown)
VH: EVQLVESGAEVKKPGSSVKVSCKASGGPFRSYAISWVRQAPGQGPEWMGGIIPIFGTTKYAPKFQGRVTITADDFAGTVYMELSSLRSEDTAMYYCAKHMGYQVRETMDVWGKGTTVTVSS
VL: QSVLTQPPSVSAAPGQKVTISCSGSSSNIGNDYVSWYQQLPGTAPKLLIYDNNKRPSGIPDRFSGSKSGTSATLGITGLQTGDEANYYCATWDRRPTAYVVFGGGTKLTVLG
- fold increase of ratio over parental SEQ ID NO: 6 (96H8): 4.8
- ratio (binding signal/HTRF signal) (96H8): 28.5
- fold increase of ratio over parental SEQ ID NO: 6 (9C6): 5.54
- ratio (binding signal/HTRF signal) (9C6): 32.9
- fold increase of ratio over parental SEQ ID NO: 6 (88C5): 5.94
- ratio (binding signal/HTRF signal) (88C5): 35.3
- fold increase of ratio over parental SEQ ID NO: 6 (85A7): 4.72
- ratio (binding signal/HTRF signal) (85A7): 28
- fold increase of ratio over parental SEQ ID NO: 6 (86B4): 13.1
- ratio (binding signal/HTRF signal) (86B4): 77.7
- fold increase of ratio over parental SEQ ID NO: 6 (56F8): 3.65
- ratio (binding signal/HTRF signal) (56F8): 21.7
- fold increase of ratio over parental SEQ ID NO: 6 (69D2): 2.19
- ratio (binding signal/HTRF signal) (69D2): 13
- fold increase of ratio over parental SEQ ID NO: 6 850: 4.07
- ratio (binding signal/HTRF signal) 850: 24.2
- fold increase of ratio over parental SEQ ID NO: 6 (87H5): 1.64
- ratio (binding signal/HTRF signal) (87H5): 9.77
- fold increase of ratio over parental SEQ ID NO: 6 (96G5): 2.4
- ratio (binding signal/HTRF signal) (96G5): 14.3
- fold increase of ratio over parental SEQ ID NO: 6 (60A2): 2.53
- ratio (binding signal/HTRF signal) (60A2): 15
- fold increase of ratio over parental SEQ ID NO: 6 (29C2): 2.32
- ratio (binding signal/HTRF signal) (29C2): 13.8
- fold increase of ratio over parental SEQ ID NO: 6 (80F10): 1.78
- ratio (binding signal/HTRF signal) (80F10): 10.6
- fold increase of ratio over parental SEQ ID NO: 6 (51G10): 3.73
- ratio (binding signal/HTRF signal) (51G10): 22.1
- fold increase of ratio over parental SEQ ID NO: 6 (84B8): 9.71
- ratio (binding signal/HTRF signal) (84B8): 57.7
- fold increase of ratio over parental SEQ ID NO: 6 (86G2): 1.93
- ratio (binding signal/HTRF signal) (86G2): 11.5
- fold increase of ratio over parental SEQ ID NO: 6 (96A7): 1.85
- ratio (binding signal/HTRF signal) (96A7): 11
- fold increase of ratio over parental SEQ ID NO: 6 (4C1): 3.92
- ratio (binding signal/HTRF signal) (4C1): 23.3
- fold increase of ratio over parental SEQ ID NO: 6 (91C4): 4.35
- ratio (binding signal/HTRF signal) (91C4): 25.8
- fold increase of ratio over parental SEQ ID NO: 6 (8A10): 6.29
- ratio (binding signal/HTRF signal) (8A10): 37.4
- fold increase of ratio over parental SEQ ID NO: 6 (8D7): 1.69
- ratio (binding signal/HTRF signal) (8D7): 10
- fold increase of ratio over parental SEQ ID NO: 6 (79C2): 8.62
- ratio (binding signal/HTRF signal) (79C2): 51.2
- fold increase of ratio over parental SEQ ID NO: 6 (27B10): 2.75
- ratio (binding signal/HTRF signal) (27B10): 16.3
- fold increase of ratio over parental SEQ ID NO: 6 (86B3): 10.5
- ratio (binding signal/HTRF signal) (86B3): 62.4
- fold increase of ratio over parental SEQ ID NO: 6 (75E9): 2.17
- ratio (binding signal/HTRF signal) (75E9): 12.9
- fold increase of ratio over parental SEQ ID NO: 6 (6E12): 2.85
- ratio (binding signal/HTRF signal) (6E12): 16.9
- fold increase of ratio over parental SEQ ID NO: 6 (67C11): 3.57
- ratio (binding signal/HTRF signal) (67C11): 21.2
- fold increase of ratio over parental SEQ ID NO: 6 (71D3): 5.67
- ratio (binding signal/HTRF signal) (71D3): 33.7
- fold increase of ratio over parental SEQ ID NO: 6 (36E4): 2.07
- ratio (binding signal/HTRF signal) (36E4): 12.3
- fold increase of ratio over parental SEQ ID NO: 6 (71A4): 10.2
- ratio (binding signal/HTRF signal) (71A4): 60.5
- fold increase of ratio over parental SEQ ID NO: 6 (35H3): 2.94
- ratio (binding signal/HTRF signal) (35H3): 17.4
- fold increase of ratio over parental SEQ ID NO: 6 (58C8): 2.51
- ratio (binding signal/HTRF signal) (58C8): 14.9
- fold increase of ratio over parental SEQ ID NO: 6 (81F11): 5.37
- ratio (binding signal/HTRF signal) (81F11): 31.9
- fold increase of ratio over parental SEQ ID NO: 6 (55G7): 11.8
- ratio (binding signal/HTRF signal) (55G7): 70.3
- fold increase of ratio over parental SEQ ID NO: 6 (54H4): 8.39
- ratio (binding signal/HTRF signal) (54H4): 49.8
- fold increase of ratio over parental SEQ ID NO: 6 (12C6): 2.43
- ratio (binding signal/HTRF signal) (12C6): 14.4
- fold increase of ratio over parental SEQ ID NO: 6 (84D3): 4.87
- ratio (binding signal/HTRF signal) (84D3): 28.9
- fold increase of ratio over parental SEQ ID NO: 6 (61A9): 5.94
- ratio (binding signal/HTRF signal) (61A9): 35.3
